# Test results as given in US12227551B2, “Membrane bound IL12 compositions and methods for tunable regulation” (Obsidian Therapeutics, Inc., priority 2018, dated 2025).
# Assays:
# [1] = Body weight and clinical signs of GVHD, Nalm6-Luc NSG model (Example 9; Table 30); assay type: in vivo, NSG mice; settings: in g (unit assumed)
# Method: (§1) The study was designed to determine if membrane bound IL12 (mbIL12) expressed on CAR-T cells via a CD8 TM domain and CD8 Hinge Region promotes CAR T cell expansion in cis, promotes non-CAR-T cell expansion in trans, and/or increases in vivo CAR T cell efficacy against CD19+ Nalm6 tumors. To test in vivo anti-tumor activity, experiments were performed in NSG mice. Nalm6 cells were transfected with Redifect Red-Fluc (Perkin Elmer) under selection using Puromycin for ˜2 months to generate a line that stably expresses the luciferase reporter; thereafter named Nalm6-Luc. Ten days before tumor implantation, Nalm6-Luc cells were thawed and cultured in puromycin-containing media. On day 0, cells were counted, resuspended in PBS and injected into NSG mice via tail vein. On day 6, mice were imaged for bioluminescent intensity (BLI) and sorted into groups based on their tumor size ensuring that all groups had the same sized tumors. Human T cells were transduced with one of the following constructs as shown in the study design in Table 27:
# The amount of body weight loss appeared to correlate with the levels of plasma IL12 detected at earlier timepoints (Table 31).
# CD19+ Nalm6 tumors = assay: Kaplan-Meier animal survival, Nalm6-Luc NSG model (Example 9; Table 29); assay type: in vivo, NSG mice
# Method: as §1
# Percent survival was also measured for each group during the course of the experiment and the following numbers were obtained as shown in Table 29: […]
# Nalm-6 cells = assay: 48 hour cytotoxicity assay, T cells co-cultured with Nalm-6 NucRed cells, Incucyte (Example 7; Table 21); assay type: cell-based
# Method: For cytotoxicity assays, T cells were thawed and co-cultured with Nalm-6 cells (stably expressing NucRed®) at different T cells to Nalm-6 cell culture ratios. Target cell viability was determined by measuring cellular fluorescence over time using an Incucyte assay and the results are shown in Table 21.
molecule,measurement,setting,value
OT-001356: CD19 CAR; stop; IRES; secreted IL12 (p40 23-328; (G4S)3; p35 57-253); nucleic acid SEQ ID NO: 482 (protein) IWELKKDVYVVELDWYPDAPGEMVVLTCDTPEEDGITWTLDQSSEVLGSGKTLTIQVKEFGDAGQYTCHKGGEVLSHSLLLLHKKEDGIWSTDILKDQKEPKNKTFLRCEAKNYSGRFTCWWLTTISTDLTFSVKSSRGSSDPQGVTCGAATLSAERVRGDNKEYEYSVECQEDSACPAAEESLPIEVMVDAVHKLKYENYTSSFFIRDIIKPDPPKNLQLKPLKNSRQVEVSWEYPDTWSTPHSYFSLTFCVQVQGKSKREKKDRVFTDKTSATVICRKNASISVRAQDRYYSSSWSEWASVPCSGGGGSGGGGSGGGGSRNLPVATPDPGMFPCLHHSQNLLRAVSNMLQKARQTLEFYPCTSEEIDHEDITKDKTSTVEACLPLELTKNESCLNSRETSFITNGSCLASRKTSFMMALCLSSIYEDLKMYQVEFKTMNAKLLMDPKRQIFLDQNMLAVIDELMQALNFNSETVPQKSSLEEPDFYKTKIKLCILLHAFRIRAVTIDRVMSYLNASGS,body weight,[1]; day 6 post tumor implant (before T cell infusion),19.6125
same,body weight,[1]; day 13 post tumor implant,20.5125
same,body weight,[1]; day 20 post tumor implant,20.5875
same,body weight,[1]; day 27 post tumor implant,22.2125
same,body weight,[1]; day 34 post tumor implant,21.8875
same,body weight,[1]; day 41 post tumor implant,19.93
same,Proportion of survival post tumor implant,CD19+ Nalm6 tumors; day 0 post tumor implant,100%
same,Proportion of survival post tumor implant,CD19+ Nalm6 tumors; day 41 post tumor implant,50.0%
same,Proportion of survival post tumor implant,CD19+ Nalm6 tumors; day 43 post tumor implant,50.0%
same,Average Total Nalm6-NucRed Area after 48 hour at E:T ratio of 3:1,"Nalm-6 cells; E:T 3:1, 48 hour","33,079"
same,Average Total Nalm6-NucRed Area after 48 hour at E:T ratio of 10:1,"Nalm-6 cells; E:T 10:1, 48 hour","32,236"
